In PMC13185310, “A versatile nanobody platform for live and super-resolution imaging of synaptic vesicle dynamics and plasticity in rodent and human neurons” (Journal of Nanobiotechnology, 2026):

Tests used:
Settings in all cases: one partner purified
[1] = target: T1, endogenous Syt1 on the surface of live hippocampal neurons (uPAINT) (Rattus norvegicus (assumed), UniProt P21707); assay: single-molecule imaging on live neurons (uPAINT); live hippocampal neurons (21-22 DIV) in high-K+ buffer with 1 nM labelled nanobody complex, HILO, 50 Hz for 320 s, 37 °C
T1 construct: Synaptotagmin 1 (Syt1), endogenous; also called surface-exposed Syt1; source: endogenous, live hippocampal neurons (21-22 DIV)

[2] = target: T2, endogenous Synaptotagmin 1 of wild-type mouse neurons / brain (Mus musculus, UniProt P46096); assay: co-IP; GFP-tagged nanobody preloaded on GFP Selector beads; lysate of WT or Syt1 KO mouse brain, 1 h at 4 °C; blot with a Syt1 cytoplasmic antibody
T2 construct: Synaptotagmin 1 (Syt1), mouse, endogenous; On live neurons in the uptake experiment; in a detergent lysate in the immunoprecipitation; also called endogenous Syt1; Syt1; source: endogenous, WT mouse brain lysate (methods; the legend says mouse primary neurons); endogenous, on live WT mouse primary neurons

[3] = target: T3, endogenous human Syt1 of human iPSC-derived neurons (Homo sapiens, UniProt P21579); assay: immunostaining of cells or tissue; live staining of 80-day-old human iPSC-derived hypothalamic neurons with 5.5 µM pHluorin-labeled nanobody, 20 min at 37 °C, with 30 mM KCl or 1 µM TTX, after blocking the surface pool with unlabeled nanobody; fixed and stained with anti-GFP, anti-Syt1, anti-TUBB3
T3 construct: Synaptotagmin 1 (Syt1), human, endogenous; also called endogenous Syt1; source: endogenous, live human iPSC-derived hypothalamic-like neurons

[4] = target: T4, endogenous Synaptotagmin 1 of primary hippocampal neurons (proximity labelling and PLA) (rat (endogenous in primary hippocampal …, UniProt P21707)); assay: proximity labelling; NbLumSyt1-APEX2 taken up by live primary neurons (30 min, with biotin-phenol), 1 mM H2O2 for 30 s; streptavidin beads, LC-MS/MS; controls: no nanobody, NbALFA-APEX2
T4 construct: Synaptotagmin 1 (Syt1), endogenous; spectra searched against the Rattus norvegicus proteome (UP000234681); neurons 'in most cases' from Wistar rat pups; also called Syt1; Syt1-lum; source: endogenous, live primary hippocampal neurons
T4 sequence (P21707 whole entry): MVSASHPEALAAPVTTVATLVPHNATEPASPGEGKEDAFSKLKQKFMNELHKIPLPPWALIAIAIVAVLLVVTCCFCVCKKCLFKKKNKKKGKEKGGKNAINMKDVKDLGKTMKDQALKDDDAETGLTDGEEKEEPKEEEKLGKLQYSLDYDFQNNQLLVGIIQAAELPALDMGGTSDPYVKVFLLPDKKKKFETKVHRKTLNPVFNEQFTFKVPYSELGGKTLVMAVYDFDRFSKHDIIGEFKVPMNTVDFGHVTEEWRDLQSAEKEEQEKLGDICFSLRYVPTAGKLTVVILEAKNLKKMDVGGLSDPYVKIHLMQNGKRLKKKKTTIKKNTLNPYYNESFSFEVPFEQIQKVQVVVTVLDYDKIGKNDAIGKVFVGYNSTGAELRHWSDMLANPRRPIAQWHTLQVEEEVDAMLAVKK

T1 sequence (P21707 whole entry): as above
T3 sequence (P21579 whole entry): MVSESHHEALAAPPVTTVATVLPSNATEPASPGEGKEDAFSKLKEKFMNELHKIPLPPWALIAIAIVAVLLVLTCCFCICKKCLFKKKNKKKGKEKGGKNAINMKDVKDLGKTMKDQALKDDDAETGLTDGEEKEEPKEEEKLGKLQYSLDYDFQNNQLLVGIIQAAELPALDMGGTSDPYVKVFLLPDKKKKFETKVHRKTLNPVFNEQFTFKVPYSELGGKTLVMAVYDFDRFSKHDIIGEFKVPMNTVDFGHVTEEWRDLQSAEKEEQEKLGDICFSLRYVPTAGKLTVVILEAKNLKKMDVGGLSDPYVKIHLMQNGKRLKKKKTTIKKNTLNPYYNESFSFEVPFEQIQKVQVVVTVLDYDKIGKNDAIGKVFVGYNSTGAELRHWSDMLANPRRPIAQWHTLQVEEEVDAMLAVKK
T2 sequence (P46096 whole entry): as the sequence (P21707 whole entry) above, with H6R counted along it

B1: NbLumSyt1-HALO bound to the Halo-ligand JF549 (VHH)
VHH: EVQLVESGGGLVQTGGSLRLSCTASGSIGSISVMGWYRQVPGTQYELVAGISRGGSTWYEDSVKGRFTISRDNAKNTLYLQMNSLKPEDTGMYYCAGGDYSDRLGSWGQGTQVTVSS
notes: alpaca nanobody clone 1F12; as the nanobody of m1 (PDB 8B8I chain A); also called NbLumSyt1-HALO/JF549; NbLumSyt1-Halo/JF549; source: produced and purified via NanoTag Biotechnologies
B1: binds [1].

B2: NbLumSyt1 fused to a GFP tag (VHH)
VHH: B1 VHH
notes: alpaca nanobody clone 1F12; as the nanobody of m1 (PDB 8B8I chain A); Held on GFP Selector beads in the IP; detected with anti-GFP after uptake in neurons; also called GFP-tagged nanobody
B2: binds [2].

B3: NbLumSyt1-pHluorin (VHH)
VHH: B1 VHH
notes: alpaca nanobody clone 1F12; as the nanobody of m1 (PDB 8B8I chain A); In uPAINT it was precomplexed with an anti-GFP nanobody carrying Atto647N (a label); A version with a TEV site in the linker also exists; also called NbSyt1-pH; pHluorin-labeled Syt1 nanobody
B3: binds [1]; binds [3].

B4: NbLumSyt1-APEX2 (VHH)
VHH: B1 VHH
notes: alpaca nanobody clone 1F12; as the nanobody of m1 (PDB 8B8I chain A); also called Nb-APEX2
B4: binds [4].
